Starred links: 1 amine or outer side, 2 acyl side, 3 side chain; linkers in the order of their positions; H or OH if unused. Non-standard residues stand in square brackets, D forms with d. Groups on a side chain read outwards from the residue. No end group written: not given here. *: point of attachment. C18 diacid = O=C(O)CCCCCCCCCCCCCCCCC(=O)*; γGlu = O=C(O)[C@H](CCC(=O)[*:2])N[*:1]; εLys = N[C@@H](CCCCN[*:1])C(=O)[*:2]; AEEA = NCCOCCOCC(=O)O; Aib = CC(C)(N)C(=O)O
Columns and labels:
human GIP receptor = target: T1, human GIP receptor (human, UniProt P48546 22-466); assay: cell-based or functional assay
T1 sequence (looked up): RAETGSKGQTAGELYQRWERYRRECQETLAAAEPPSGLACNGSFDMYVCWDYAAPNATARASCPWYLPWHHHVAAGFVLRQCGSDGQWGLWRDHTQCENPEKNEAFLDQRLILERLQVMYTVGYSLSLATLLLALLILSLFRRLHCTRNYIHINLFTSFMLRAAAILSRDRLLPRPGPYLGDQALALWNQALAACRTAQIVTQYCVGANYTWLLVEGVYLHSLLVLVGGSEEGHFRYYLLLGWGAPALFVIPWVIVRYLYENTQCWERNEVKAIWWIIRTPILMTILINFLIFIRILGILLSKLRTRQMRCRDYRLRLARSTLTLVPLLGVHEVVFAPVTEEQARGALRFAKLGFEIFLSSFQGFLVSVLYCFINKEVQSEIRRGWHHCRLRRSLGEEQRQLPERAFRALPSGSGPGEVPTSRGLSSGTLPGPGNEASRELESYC

human GLP-1 receptor = human GLP-1 receptor (human, UniProt P43220 24-463); assay: cell-based or functional assay
Chain of human GLP-1 receptor (P43220 24-463): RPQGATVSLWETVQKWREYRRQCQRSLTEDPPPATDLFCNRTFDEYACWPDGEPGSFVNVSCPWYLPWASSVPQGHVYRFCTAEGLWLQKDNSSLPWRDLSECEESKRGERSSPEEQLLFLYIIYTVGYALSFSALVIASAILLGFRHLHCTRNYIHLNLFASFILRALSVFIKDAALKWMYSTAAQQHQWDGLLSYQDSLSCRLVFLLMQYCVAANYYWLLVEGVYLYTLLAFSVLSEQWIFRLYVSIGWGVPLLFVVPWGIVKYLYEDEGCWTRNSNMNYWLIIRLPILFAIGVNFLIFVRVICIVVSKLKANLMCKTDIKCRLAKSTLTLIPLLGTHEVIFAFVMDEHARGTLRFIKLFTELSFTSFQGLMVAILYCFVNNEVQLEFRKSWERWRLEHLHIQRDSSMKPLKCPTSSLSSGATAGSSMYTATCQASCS

human GIP (from UniProt P09681 52-93) (ligand)
hGIPR, CRE Luc 0% HSA EC50 (pM) (human GIP receptor): 11.3 pM
hGIPR, CRE Luc 1% HSA EC50 (pM) (human GIP receptor): 6.4 pM

B1: Compound No. 18 (peptide)
peptide: Y[Aib]EGTFTSDYSILLEK([εLys-εLys-γGlu-C18 diacid])QAAREFINWLLAG-OH
modifications: N-terminus assumed
SMILES: CC[C@H](C)[C@H](NC(=O)[C@H](Cc1ccccc1)NC(=O)[C@H](CCC(=O)O)NC(=O)[C@H](CCCNC(=N)N)NC(=O)[C@H](C)NC(=O)[C@H](C)NC(=O)[C@H](CCC(N)=O)NC(=O)[C@H](CCCCNC(=O)[C@@H](N)CCCCNC(=O)[C@@H](N)CCCCNC(=O)CC[C@H](NC(=O)CCCCCCCCCCCCCCCCC(=O)O)C(=O)O)NC(=O)[C@H](CCC(=O)O)NC(=O)[C@H](CC(C)C)NC(=O)[C@H](CC(C)C)NC(=O)[C@@H](NC(=O)[C@H](CO)NC(=O)[C@H](Cc1ccc(O)cc1)NC(=O)[C@H](CC(=O)O)NC(=O)[C@H](CO)NC(=O)[C@@H](NC(=O)[C@H](Cc1ccccc1)NC(=O)[C@@H](NC(=O)CNC(=O)[C@H](CCC(=O)O)NC(=O)C(C)(C)NC(=O)[C@@H](N)Cc1ccc(O)cc1)[C@@H](C)O)[C@@H](C)O)[C@@H](C)CC)C(=O)N[C@@H](CC(N)=O)C(=O)N[C@@H](Cc1c[nH]c2ccccc12)C(=O)N[C@@H](CC(C)C)C(=O)N[C@@H](CC(C)C)C(=O)N[C@@H](C)C(=O)NCC(=O)O
hGLP-1R, CRE Luc 0% HSA EC50 (pM) (human GLP-1 receptor): 19.7 pM
hGLP-1R, CRE Luc 1% HSA EC50 (pM) (human GLP-1 receptor): 226 pM
hGIPR, CRE Luc 0% HSA EC50 (pM) (human GIP receptor): 20.9 pM
hGIPR, CRE Luc 1% HSA EC50 (pM) (human GIP receptor): 285 pM

B2: Compound No. 20 (peptide)
peptide: Y[Aib]EGTFTSDYSILLEK([εLys-εLys-γGlu-C18 diacid])QAAREFINWLLAGGPSS-OH
modifications: N-terminus assumed
SMILES: CC[C@H](C)[C@H](NC(=O)[C@H](Cc1ccccc1)NC(=O)[C@H](CCC(=O)O)NC(=O)[C@H](CCCNC(=N)N)NC(=O)[C@H](C)NC(=O)[C@H](C)NC(=O)[C@H](CCC(N)=O)NC(=O)[C@H](CCCCNC(=O)[C@@H](N)CCCCNC(=O)[C@@H](N)CCCCNC(=O)CC[C@H](NC(=O)CCCCCCCCCCCCCCCCC(=O)O)C(=O)O)NC(=O)[C@H](CCC(=O)O)NC(=O)[C@H](CC(C)C)NC(=O)[C@H](CC(C)C)NC(=O)[C@@H](NC(=O)[C@H](CO)NC(=O)[C@H](Cc1ccc(O)cc1)NC(=O)[C@H](CC(=O)O)NC(=O)[C@H](CO)NC(=O)[C@@H](NC(=O)[C@H](Cc1ccccc1)NC(=O)[C@@H](NC(=O)CNC(=O)[C@H](CCC(=O)O)NC(=O)C(C)(C)NC(=O)[C@@H](N)Cc1ccc(O)cc1)[C@@H](C)O)[C@@H](C)O)[C@@H](C)CC)C(=O)N[C@@H](CC(N)=O)C(=O)N[C@@H](Cc1c[nH]c2ccccc12)C(=O)N[C@@H](CC(C)C)C(=O)N[C@@H](CC(C)C)C(=O)N[C@@H](C)C(=O)NCC(=O)NCC(=O)N1CCC[C@H]1C(=O)N[C@@H](CO)C(=O)N[C@@H](CO)C(=O)O
hGLP-1R, CRE Luc 0% HSA EC50 (pM) (human GLP-1 receptor): 4.2 pM
hGLP-1R, CRE Luc 1% HSA EC50 (pM) (human GLP-1 receptor): 256 pM
hGIPR, CRE Luc 0% HSA EC50 (pM) (human GIP receptor): 7.1 pM
hGIPR, CRE Luc 1% HSA EC50 (pM) (human GIP receptor): 247 pM

B3: Compound No. 19 (peptide)
peptide: Y[Aib]EGTFTSDYSILLEK([εLys-εLys-γGlu-C18 diacid])QAAREFINWLLAGGP-OH
modifications: N-terminus assumed
SMILES: CC[C@H](C)[C@H](NC(=O)[C@H](Cc1ccccc1)NC(=O)[C@H](CCC(=O)O)NC(=O)[C@H](CCCNC(=N)N)NC(=O)[C@H](C)NC(=O)[C@H](C)NC(=O)[C@H](CCC(N)=O)NC(=O)[C@H](CCCCNC(=O)[C@@H](N)CCCCNC(=O)[C@@H](N)CCCCNC(=O)CC[C@H](NC(=O)CCCCCCCCCCCCCCCCC(=O)O)C(=O)O)NC(=O)[C@H](CCC(=O)O)NC(=O)[C@H](CC(C)C)NC(=O)[C@H](CC(C)C)NC(=O)[C@@H](NC(=O)[C@H](CO)NC(=O)[C@H](Cc1ccc(O)cc1)NC(=O)[C@H](CC(=O)O)NC(=O)[C@H](CO)NC(=O)[C@@H](NC(=O)[C@H](Cc1ccccc1)NC(=O)[C@@H](NC(=O)CNC(=O)[C@H](CCC(=O)O)NC(=O)C(C)(C)NC(=O)[C@@H](N)Cc1ccc(O)cc1)[C@@H](C)O)[C@@H](C)O)[C@@H](C)CC)C(=O)N[C@@H](CC(N)=O)C(=O)N[C@@H](Cc1c[nH]c2ccccc12)C(=O)N[C@@H](CC(C)C)C(=O)N[C@@H](CC(C)C)C(=O)N[C@@H](C)C(=O)NCC(=O)NCC(=O)N1CCC[C@H]1C(=O)O
hGLP-1R, CRE Luc 0% HSA EC50 (pM) (human GLP-1 receptor): 8.6 pM
hGLP-1R, CRE Luc 1% HSA EC50 (pM) (human GLP-1 receptor): 365 pM
hGIPR, CRE Luc 0% HSA EC50 (pM) (human GIP receptor): 6.5 pM
hGIPR, CRE Luc 1% HSA EC50 (pM) (human GIP receptor): 275 pM

B4: Compound No. 10 (peptide)
peptide: Y[Aib]EGTFTSDYSIYLEK([AEEA-AEEA-γGlu-C18 diacid])QAAREFIEWLLAGGPSSGAPPPS-OH
modifications: N-terminus assumed
SMILES: CC[C@H](C)[C@H](NC(=O)[C@H](Cc1ccccc1)NC(=O)[C@H](CCC(=O)O)NC(=O)[C@H](CCCNC(=N)N)NC(=O)[C@H](C)NC(=O)[C@H](C)NC(=O)[C@H](CCC(N)=O)NC(=O)[C@H](CCCCNC(=O)COCCOCCNC(=O)COCCOCCNC(=O)CC[C@H](NC(=O)CCCCCCCCCCCCCCCCC(=O)O)C(=O)O)NC(=O)[C@H](CCC(=O)O)NC(=O)[C@H](CC(C)C)NC(=O)[C@H](Cc1ccc(O)cc1)NC(=O)[C@@H](NC(=O)[C@H](CO)NC(=O)[C@H](Cc1ccc(O)cc1)NC(=O)[C@H](CC(=O)O)NC(=O)[C@H](CO)NC(=O)[C@@H](NC(=O)[C@H](Cc1ccccc1)NC(=O)[C@@H](NC(=O)CNC(=O)[C@H](CCC(=O)O)NC(=O)C(C)(C)NC(=O)[C@@H](N)Cc1ccc(O)cc1)[C@@H](C)O)[C@@H](C)O)[C@@H](C)CC)C(=O)N[C@@H](CCC(=O)O)C(=O)N[C@@H](Cc1c[nH]c2ccccc12)C(=O)N[C@@H](CC(C)C)C(=O)N[C@@H](CC(C)C)C(=O)N[C@@H](C)C(=O)NCC(=O)NCC(=O)N1CCC[C@H]1C(=O)N[C@@H](CO)C(=O)N[C@@H](CO)C(=O)NCC(=O)N[C@@H](C)C(=O)N1CCC[C@H]1C(=O)N1CCC[C@H]1C(=O)N1CCC[C@H]1C(=O)N[C@@H](CO)C(=O)O
hGIPR, CRE Luc 0% HSA EC50 (pM) (human GIP receptor): 11.3 pM

B5: Compound No. 21 (peptide)
peptide: Y[Aib]EGTFTSDYSILLEK([εLys-εLys-γGlu-C18 diacid])QAAREFINWLLAGGPSSGA-OH
modifications: N-terminus assumed
SMILES: CC[C@H](C)[C@H](NC(=O)[C@H](Cc1ccccc1)NC(=O)[C@H](CCC(=O)O)NC(=O)[C@H](CCCNC(=N)N)NC(=O)[C@H](C)NC(=O)[C@H](C)NC(=O)[C@H](CCC(N)=O)NC(=O)[C@H](CCCCNC(=O)[C@@H](N)CCCCNC(=O)[C@@H](N)CCCCNC(=O)CC[C@H](NC(=O)CCCCCCCCCCCCCCCCC(=O)O)C(=O)O)NC(=O)[C@H](CCC(=O)O)NC(=O)[C@H](CC(C)C)NC(=O)[C@H](CC(C)C)NC(=O)[C@@H](NC(=O)[C@H](CO)NC(=O)[C@H](Cc1ccc(O)cc1)NC(=O)[C@H](CC(=O)O)NC(=O)[C@H](CO)NC(=O)[C@@H](NC(=O)[C@H](Cc1ccccc1)NC(=O)[C@@H](NC(=O)CNC(=O)[C@H](CCC(=O)O)NC(=O)C(C)(C)NC(=O)[C@@H](N)Cc1ccc(O)cc1)[C@@H](C)O)[C@@H](C)O)[C@@H](C)CC)C(=O)N[C@@H](CC(N)=O)C(=O)N[C@@H](Cc1c[nH]c2ccccc12)C(=O)N[C@@H](CC(C)C)C(=O)N[C@@H](CC(C)C)C(=O)N[C@@H](C)C(=O)NCC(=O)NCC(=O)N1CCC[C@H]1C(=O)N[C@@H](CO)C(=O)N[C@@H](CO)C(=O)NCC(=O)N[C@@H](C)C(=O)O
hGLP-1R, CRE Luc 0% HSA EC50 (pM) (human GLP-1 receptor): 5.7 pM
hGLP-1R, CRE Luc 1% HSA EC50 (pM) (human GLP-1 receptor): 118 pM
hGIPR, CRE Luc 0% HSA EC50 (pM) (human GIP receptor): 5.4 pM
hGIPR, CRE Luc 1% HSA EC50 (pM) (human GIP receptor): 131 pM
